Kd, kon and EC50 (read off the curve) data for two substances are collected here from patent US20230111212A1, “MUSCLE TARGETING COMPLEXES AND USES THEREOF FOR TREATING DYSTROPHINOPATHIES” (Dyne Therapeutics, Inc., priority 2020, published 2023).

Experiment [1] deals with human transferrin receptor 1 (human) (UniProt P02786). Description: Carterra LSA at 25C, IgG captured on anti-IgG lawn, hTfR1 injected, 1:1 Langmuir fit.
Experiment [2] concerns the target human transferrin receptor 2 (human) (UniProt Q9UP52). Description: ELISA on human TfR2, RFU. (In an ELISA, binding on a coated surface is turned into a signal by an enzyme label.)

Sequence of human transferrin receptor 1 (human) (P02786 89-760 limits assumed): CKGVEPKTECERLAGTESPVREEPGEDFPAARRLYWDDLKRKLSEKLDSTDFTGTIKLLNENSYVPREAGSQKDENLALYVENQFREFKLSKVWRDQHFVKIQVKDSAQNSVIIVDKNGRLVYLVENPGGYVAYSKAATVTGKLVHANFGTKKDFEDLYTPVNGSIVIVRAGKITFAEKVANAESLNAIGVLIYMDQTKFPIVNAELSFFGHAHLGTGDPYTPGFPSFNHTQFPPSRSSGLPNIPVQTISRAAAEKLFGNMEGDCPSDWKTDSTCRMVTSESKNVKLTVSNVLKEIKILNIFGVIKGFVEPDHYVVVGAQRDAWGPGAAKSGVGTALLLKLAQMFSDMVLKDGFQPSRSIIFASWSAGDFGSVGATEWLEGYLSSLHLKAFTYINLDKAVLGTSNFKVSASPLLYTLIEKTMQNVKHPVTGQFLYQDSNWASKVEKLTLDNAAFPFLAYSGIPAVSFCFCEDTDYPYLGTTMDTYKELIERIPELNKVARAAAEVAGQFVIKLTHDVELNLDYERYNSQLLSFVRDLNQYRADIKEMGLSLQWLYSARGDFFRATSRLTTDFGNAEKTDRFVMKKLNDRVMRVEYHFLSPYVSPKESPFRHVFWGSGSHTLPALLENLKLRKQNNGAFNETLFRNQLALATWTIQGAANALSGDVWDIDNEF
Sequence of human transferrin receptor 2 (human) (Q9UP52 105-801 limits assumed): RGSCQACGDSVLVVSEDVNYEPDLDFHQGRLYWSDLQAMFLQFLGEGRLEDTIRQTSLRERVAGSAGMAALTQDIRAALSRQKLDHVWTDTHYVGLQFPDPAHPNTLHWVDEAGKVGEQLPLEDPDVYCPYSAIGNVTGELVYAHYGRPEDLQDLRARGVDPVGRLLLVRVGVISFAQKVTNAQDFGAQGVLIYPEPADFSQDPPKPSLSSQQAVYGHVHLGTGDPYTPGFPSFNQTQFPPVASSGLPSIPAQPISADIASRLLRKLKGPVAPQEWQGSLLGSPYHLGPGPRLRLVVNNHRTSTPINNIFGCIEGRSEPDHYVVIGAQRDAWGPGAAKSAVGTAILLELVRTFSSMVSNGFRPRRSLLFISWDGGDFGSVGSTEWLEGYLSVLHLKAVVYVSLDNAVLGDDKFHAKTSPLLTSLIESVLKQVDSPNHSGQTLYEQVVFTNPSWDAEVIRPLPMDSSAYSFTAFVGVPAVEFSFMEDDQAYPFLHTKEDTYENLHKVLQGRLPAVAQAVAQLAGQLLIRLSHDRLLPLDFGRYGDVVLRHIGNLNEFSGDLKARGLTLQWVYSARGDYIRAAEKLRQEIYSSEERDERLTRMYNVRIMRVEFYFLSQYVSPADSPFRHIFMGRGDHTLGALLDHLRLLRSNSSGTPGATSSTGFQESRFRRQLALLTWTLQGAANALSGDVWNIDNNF

A word on the Kd: it is the concentration at which binding is half-saturated. The low end stands for tighter binding, the high end for weaker binding. The kon is a measure of how fast the partners come together. Low readings indicate slower complex formation, high ones faster complex formation. In experiment [1], OKT9 mIgG (antibody) registered a Kd of 0.536 nM and a kon of 774000 M⁻¹ s⁻¹.
In general, EC50 (read off the curve) refers to the concentration at which the effect is half-maximal. The low end stands for greater potency, the high end for weaker potency. TfR2 Monoclonal Antibody (OTI1B1) had an EC50 (read off the curve) in experiment [2] of 2 nM.
